Data taken from patent US20130115676.
Numbering of substitutions follows the chain as printed.

Tests used:
Test in all cases: cleavage_in_vitro
[1] = test system: T1, AvrII (Anabaena variabilis); conditions: NEB1, 10 mM MgCl2, 37 C
T1 sequence: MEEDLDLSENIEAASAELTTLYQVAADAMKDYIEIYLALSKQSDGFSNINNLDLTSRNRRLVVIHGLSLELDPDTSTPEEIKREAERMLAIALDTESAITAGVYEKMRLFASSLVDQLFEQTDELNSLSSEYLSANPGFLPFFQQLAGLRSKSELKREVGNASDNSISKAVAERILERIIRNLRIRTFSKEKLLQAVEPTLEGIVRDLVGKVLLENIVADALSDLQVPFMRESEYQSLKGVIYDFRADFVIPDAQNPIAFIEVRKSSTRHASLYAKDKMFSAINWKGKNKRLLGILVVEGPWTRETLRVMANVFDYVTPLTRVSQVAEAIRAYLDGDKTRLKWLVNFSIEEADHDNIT

[2] = test system: T2, AvrII-HF Y104F (Anabaena variabilis); conditions: NEB4, 10 mM Mg acetate, 37 C
T2 sequence: T1 sequence with Y104F

[3] = target: T3, SalI (Streptomyces albus G) (UniProt Q53608); conditions: NEB3, 10 mM MgCl2, 37 C; Table 10 gives FI 4
T3 sequence: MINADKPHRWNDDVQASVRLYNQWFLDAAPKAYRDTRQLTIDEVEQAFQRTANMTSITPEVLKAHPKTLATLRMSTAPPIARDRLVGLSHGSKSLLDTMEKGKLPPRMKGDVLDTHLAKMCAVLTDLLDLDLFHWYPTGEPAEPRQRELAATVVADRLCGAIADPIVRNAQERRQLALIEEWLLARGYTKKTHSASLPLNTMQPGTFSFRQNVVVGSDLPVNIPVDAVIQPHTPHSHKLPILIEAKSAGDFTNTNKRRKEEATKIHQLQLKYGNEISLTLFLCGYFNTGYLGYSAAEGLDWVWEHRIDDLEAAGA

[4] = target: T4, SalI-HF R107A (Streptomyces albus G) (UniProt Q53608); conditions: NEB2, 10 mM MgCl2, 37 C; Table 10 gives FI >=2000
T4 sequence: T3 sequence with R107A

[5] = target: T5, PvuII-HF T46G (Proteus vulgaris) (UniProt P23657); conditions: NEB4, 10 mM Mg acetate, 37 C
T5 sequence: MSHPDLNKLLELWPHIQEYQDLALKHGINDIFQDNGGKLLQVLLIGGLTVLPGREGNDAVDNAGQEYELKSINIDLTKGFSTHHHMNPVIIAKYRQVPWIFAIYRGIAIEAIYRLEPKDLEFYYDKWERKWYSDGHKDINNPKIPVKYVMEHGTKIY

PvuII (Proteus vulgaris) = target: T6, PvuII (Proteus vulgaris) (UniProt P23657); conditions: NEB1, 10 mM MgCl2, 37 C
T6 sequence: T5 sequence with G46T

[6] = test system: T7, BspQI-HF K279P/R388F (Bacillus sphaericus); conditions: NEB4, 10 mM Mg acetate, 50 C
T7 sequence: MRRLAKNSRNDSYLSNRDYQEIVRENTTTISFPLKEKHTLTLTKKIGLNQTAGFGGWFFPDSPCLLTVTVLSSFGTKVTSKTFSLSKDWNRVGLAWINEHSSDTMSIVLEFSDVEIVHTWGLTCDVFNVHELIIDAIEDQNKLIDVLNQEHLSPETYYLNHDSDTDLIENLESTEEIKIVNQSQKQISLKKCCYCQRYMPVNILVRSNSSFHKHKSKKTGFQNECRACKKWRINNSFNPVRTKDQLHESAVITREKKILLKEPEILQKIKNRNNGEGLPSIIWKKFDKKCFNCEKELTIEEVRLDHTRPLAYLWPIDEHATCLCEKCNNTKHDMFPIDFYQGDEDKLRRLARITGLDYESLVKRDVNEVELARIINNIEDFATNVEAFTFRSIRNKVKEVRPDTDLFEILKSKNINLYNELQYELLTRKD

## T7 DNA
[1]
  activity (fidelity index): 64
[2]
  activity (fidelity index): > 1000

## lambda DNA HindIII-digested
[3]
  activity (fidelity index): 32
[4]
  activity (fidelity index): > 64000

## pBR322
[5]
  activity (fidelity index): 500
PvuII (Proteus vulgaris)
  activity (fidelity index): 250

## pUC19
[6]
  activity (fidelity index): > 4000
